This passage reports Ki results from publication doi:10.1101/2021.07.22.453419 (2021).

This assay has as its target T1, Papain (E.C.3.4.22.2, from papaya latex) (papaya, UniProt P00784 134-345).
T1 chain: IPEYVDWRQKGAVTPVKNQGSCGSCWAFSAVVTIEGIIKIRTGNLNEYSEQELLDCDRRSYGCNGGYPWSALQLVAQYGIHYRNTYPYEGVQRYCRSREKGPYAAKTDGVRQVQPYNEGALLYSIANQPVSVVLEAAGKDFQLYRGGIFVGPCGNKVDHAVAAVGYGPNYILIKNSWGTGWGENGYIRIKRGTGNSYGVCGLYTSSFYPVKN

B1: tomato cystatin SlCYS8 (natural protein)
chain: NPGGITNVPFPNLPQFKDLARFAVQDYNKKENAHLEFVENLNVKEQVVAGIIYYITLVATDAGKKKIYETKILVKGWENFKEVQEFKLVGDATK
By Ki is commonly meant the equilibrium dissociation constant of an inhibitor or competing ligand from its target. For B1, the Ki turned out to be 14.7 nM.
